Assay results taken from PMC12488874, “Structural insights into Wnt/β-catenin signaling regulation by LGR4, R-spondin, and ZNRF3” (Nature Communications, 2025).
Each block holds one molecule with its values, some of them ahead of it.

B1: human ZNRF3 (residues 56-267, ECD-TMD) (domain or fragment, UniProt Q9ULT6 56-267, looked up)
chain: KETAFVEVVLFESSPSGDYTTYTTGLTGRFSRAGATLSAEGEIVQMHPLGLCNNNDEEDLYEYGWVGVVKLEQPELDPKPCLTVLGKAKRAVQRGATAVIFDVSENPEAIDQLNQGSEDPLKRPVVYVKGADAIKLMNIVNKQKVARARIQHRPPRQPTEYFDMGIFLAFFVVVSLVCLILLVKIKLKQRRSQNSMNRLAVQALEKMETRKF
notes: human ZNRF3, residues 56-267 (ECD-TMD), UniProt Q9ULT6; Cloned with the rabbit immunoglobulin heavy chain V signal peptide at the N-terminus in place of its own; no tag is named for this construct; also called Zinc and Ring Finger 3

Experiments:
[1] = target: human ZNRF3 (residues 56-267, ECD-TMD) (human) (UniProt Q9ULT6)
[2] = target: T1, human LGR4 (residues 1-822), ECD and TMD, expressed in Expi293F cells (human, UniProt Q9BXB1 25-822); test: cryo-EM structure; LGR4, RSPO2 and ZNRF3 co-expressed in Expi293F, complex solubilised in LMNG/CHS and purified by anti-DYKDDDDK resin (FLAG on LGR4) and SEC in 0.01% GDN; two complexes in one sample, 1:1:2 (3.2 Å) and 2:2:2 (3.5 Å); details: both partners purified
T1 construct: signal peptide in the construct; human LGR4, residues 1-822 (ECD and TMD), UniProt Q9BXB1; no cleavage is described. pEZT-BM vector; not shown: FLAG, C-terminal, kept

[3] = target: the molecule itself; test: as above
[4] = target: T2, human LGR4 (residues 1-822), ECD and TMD, expressed in ExpiSf9 cells (human, UniProt Q9BXB1 25-822); test: cryo-EM structure; individually purified LGR4 and RSPO2 mixed at a 1:2 ratio for 3 hours at 4 °C, complex isolated by SEC (25 mM HEPES-NaOH pH 7.5, 0.15 M NaCl, 0.01% GDN); overall resolution 4.0 Å; details: both partners purified
T2 construct: signal peptide in the construct; human LGR4, residues 1-822 (ECD and TMD, without the ICD), UniProt Q9BXB1; no cleavage is described; also called Leucine-rich repeat-containing G protein-coupled receptor 4; apo LGR4; source: ExpiSf9 (baculovirus), membrane fraction solubilised in LMNG/CHS, purified (Ni-NTA, SEC)

[5] = target: B1; test: cryo-EM structure; LGR4, RSPO2 and ZNRF3 co-expressed in Expi293F, complex solubilised in LMNG/CHS and purified by anti-DYKDDDDK resin (FLAG on LGR4) and SEC in 0.01% GDN; two complexes in one sample, 1:1:2 (3.2 Å) and 2:2:2 (3.5 Å); details: both partners purified

RSPO2-induced TOPFlash Wnt/β-catenin reporter activity in HEK293T cells (siRNA against LGR4 and LGR5; 5% Wnt3a-conditioned medium, 3 ng/mL RSPO2), against wild-type LGR4 [1]: 50 % reduction
Molecule: full-length human LGR4 (CD4 TMD): TMD (7-TM, aa526-822) replaced with that of CD4 (1-TM) (from UniProt Q9BXB1 25-525; Q9BXB1 823-951) (receptor)

Molecule: B1
binding result [2]: binds
stoichiometry N [3]: 2

stoichiometry N [4]: 1
binding result [5]: binds
B2: human RSPO2 (residues 20-143, Fu1-2 domains) (ligand, UniProt Q6UXX9 20-143, looked up)
chain: HCQGNRWRRSKRASYVSNPICKGCLSCSKDNGCSRCQQKLFFFLRREGMRQYGECLHSCPSGYYGHRAPDMNRCARCRIENCDSCFSKDFCTKCKVGFYLHRGRCFDECPDGFAPLEETMECVE
notes: human RSPO2, Fu1-2 domains, UniProt Q6UXX9; no cleavage is described; Codon-optimised synthetic DNA in pEZT-BM; also called R-spondin 2; source: Expi293F, secreted into the medium, purified (Ni-NTA, SEC); also co-transfected in Expi293F with LGR4 and ZNRF3 and co-purified with them
